The source of these data is doi:10.1101/2020.08.16.252742.

Assay [1] addresses HIV-1 JR-FL Env glycoprotein (unlabelled) on HIV-1 Gag-GFP pseudovirions (HIV-1 JR-FL). As to the kind of experiment: single-molecule photobleaching.
The target in assay [2] is HIV-1 NL4-3 Env glycoprotein (unlabelled) on HIV-1 Gag-GFP pseudovirions (HIV-1 NL4-3). Kind of assay: single-molecule photobleaching.

As to “HIV-1 JR-FL Env glycoprotein (unlabelled) on HIV-1 Gag-GFP pseudovirions (complex)”, the stoichiometry N in assay [1] was more than 2 Envs. For the substance “HIV-1 NL4-3 Env glycoprotein (unlabelled) on HIV-1 Gag-GFP pseudovirions (complex)”, in assay [2], the stoichiometry N was more than 3 Envs.
